Laboratory results published in publication PMC6057488.

Tests used:
[1] = target: mouse DNGR-1 on B3Z-mDNGR-1-Syk reporter cells (mouse) (UniProt Q8BRU4)
[2] = target: DNGR-1 on cDC1s (mouse (endogenous in MutuDC1940 cells and splenic cDC1s)) (UniProt Q8BRU4); test: flow cytometry on cells; red fluorescent streptavidin beads, uncoated or coated with F-actin or F-actin and myosin II, with GFP-expressing MutuDC1940 cells for 2 hr at 37°C; with isotype control or anti-DNGR-1 antibody 1F6

F-actin and myosin II complexes (from UniProt P68135 1-377; Q28641 1-1938; P02602 1-192; P02608 1-170)
NFAT β-galactosidase reporter activity of B3Z-mDNGR-1-Syk cells, titration of an equimolar mixture of F-actin and myosin II against F-actin alone [1]: 2 log

beads coated with biotinylated F-actin and myosin II (from UniProt P68135 1-377; Q28641 1-1938; P02602 1-192; P02608 1-170) (complex)
percent of MutuDCs associated with beads [2]: < 50%

in vitro polymerized F-actin (from UniProt P68135 1-377) (natural protein)
NFAT β-galactosidase reporter activity of B3Z-mDNGR-1-Syk cells, titration of in vitro polymerized F-actin [1]: > 1 µM
